# Reference: patent US10933132B2, “Combination of epigenetic factors and bispecific compounds targeting CD33 and CD3 in the treatment of myeloid leukemia” (AMGEN RESEARCH (MUNICH) GMBH, priority 2013, dated 2021)
# Tested on: KG1α AML cells
# Test: G-CSF up-regulation of CD33 on AML cell lines, flow cytometry
# Type: cell-based
# Settings: 10 days; for CD33 MFI Ratio: KG1α, untreated 16.5
# Description: AML cell lines OCI-AML3 and KG1α were seeded in 24-well plates at 5×10^5 cells/ml on day 0. Cells were either left untreated (UT) or treated with 200 ng/ml (C1) or 2000 ng/ml (C2) G-CSF (Peprotech) for 10 days. G-CSF was freshly added to the cultures biweekly. On day 10, cells were harvested and analyzed for changes in CD33 surface expression by flow cytometry.
molecule,measurement,setting,value
"G-CSF: glycoprotein cytokine that stimulates the bone marrow to produce granulocytes and stem cells (Peprotech) (protein, UniProt P09919 31-207, looked up) Granulocyte …: TPLGPASSLPQSFLLKCLEQVRKIQGDGAALQEKLVSECATYKLCHPEELVLLGHSLGIPWAPLSSCPSQALQLAGCLSQLHSGLFLYQGLLQALEGISPELGPTLDTLQLDVADFATTIWQQMEELGMAPALQPTQGAMPAFASAFQRRAGGVLVASHLQSFLEVSYRVLRHLAQP",upregulation of CD33 (in words),"KG1α AML cells, 200 and 2000 ng/ml",low upregulation
same,CD33 MFI Ratio,C1 = 200 ng/ml G-CSF,17.9
same,CD33 MFI Ratio,C2 = 2000 ng/ml G-CSF,19.2
